# In patent US20230295259A1 (Protagonist Therapeutics, Inc., priority 2020, published 2023):
# Starred links: 1 amine or outer side, 2 acyl side, 3 side chain; linkers in the order of their positions; H or OH if unused. Positions of bridges follow the written chain, without caps; N, C: chain ends. Non-standard residues stand in square brackets, D forms with d. Groups on a side chain read outwards from the residue. *: point of attachment. Glu(OMe) = COC(=O)CC[C@H](N[*:1])C(=O)[*:2]; C18 diacid = O=C(O)CCCCCCCCCCCCCCCCC(=O)*; Dip = N[C@H](C(=O)O)C(c1ccccc1)c1ccccc1; Palmitoyl = CCCCCCCCCCCCCCCC(=O)*; β3hF = N[C@H](CC(=O)O)Cc1ccccc1; hLeu = CC(C)CC[C@H](N)C(=O)O; Isovaleryl = CC(C)CC(=O)*; Ac6c = NC1(C(=O)O)CCCCC1; Dap = NC[C@H](N)C(=O)O; AEEA = NCCOCCOCC(=O)O; Ahx = NCCCCCC(=O)O
# T1: human ferroportin (SLC40A1) fused in frame with GFP, stably expressed in HEK293 cells (human, UniProt Q9NP59 1-571)
# T1 sequence (looked up): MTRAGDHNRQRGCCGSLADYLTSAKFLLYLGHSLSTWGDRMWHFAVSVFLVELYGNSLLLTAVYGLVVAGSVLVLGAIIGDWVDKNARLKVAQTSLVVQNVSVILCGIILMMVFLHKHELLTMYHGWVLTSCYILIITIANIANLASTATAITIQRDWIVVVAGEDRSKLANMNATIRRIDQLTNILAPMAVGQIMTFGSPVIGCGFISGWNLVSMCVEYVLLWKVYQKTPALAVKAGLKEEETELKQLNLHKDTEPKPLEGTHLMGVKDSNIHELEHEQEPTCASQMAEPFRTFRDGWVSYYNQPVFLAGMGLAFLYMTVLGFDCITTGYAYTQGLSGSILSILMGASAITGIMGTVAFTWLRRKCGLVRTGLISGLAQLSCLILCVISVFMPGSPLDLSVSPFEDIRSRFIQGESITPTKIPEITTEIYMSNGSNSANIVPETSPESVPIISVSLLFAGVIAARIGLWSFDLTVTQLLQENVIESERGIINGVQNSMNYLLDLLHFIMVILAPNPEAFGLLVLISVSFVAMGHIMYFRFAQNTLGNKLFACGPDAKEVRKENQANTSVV
# Biological target: T1, human ferroportin (SLC40A1) fused in …
# Assay: cell-based or functional assay
row,IC50: FPN internalisation [nM],Binder
1,14.3,XXTXXPCIXXXC ([Isovaleric Acid]-[Glu(OMe)]-T-[4Pal]-[Dpa]-P-C-I-[Lys(1PEG2_1PEG2_Dap_C18_Diacid)]-[bhPhe]-[(D)Lys]-C-NH2) [Seq. No. 499]
2,107,XXTHXPXIXXXXC ([Isovaleric Acid]-[Glu(OMe)]-T-H-[Dpa]-P-[(D)Cys]-I-[(D)Lys]-[bhPhe]-[Lys(PEG2_1PEG2_DMG_N_2ae_C18_Diacid)]-[(D)Lys]-C-NH2) [Seq. No. 494]
3,19.9,XXTHXPCIXXXC ([Isovaleric Acid]-[Glu(OMe)]-T-H-[Dpa]-P-C-I-[Lys(PEG12_Dap_C18_Diacid)]-[bhPhe]-[(D)Lys]-C-NH2) [Seq. No. 520]
4,142,XXTHXPCIXXXC ([Isovaleric Acid]-[(D)Glu]-T-H-[Dpa]-P-C-I-[Lys(1PEG2_1PEG2_Ahx_C18_Diacid)]-[bhPhe]-[(D)Lys(PEG11_OMe)]-C-NH2) [Seq. No. 540]
5,33.8,XXTHXPCIXXXC ([Isovaleric Acid]-[(D)Arg]-T-H-[Dpa]-P-C-I-[Lys(1PEG2_1PEG2_Dap_C18_Diacid)]-[bhPhe]-[(D)Lys]-C-NH2) [Seq. No. 537]
6,54.6,Isovaleryl-ETH[Dip]PCI[dK][β3hF]K([Ahx-Palmitoyl])[dR]C[dR]-NH2 (disulfide 6-12 (inferred)) [Seq. No. 474]
7,37.4,Isovaleryl-[Glu(OMe)]TH[Dip]PC[Ac6c]K([AEEA-AEEA-Dap-C18 diacid])[β3hF][dK]C-NH2 (disulfide 6-11 (inferred)) [Seq. No. 512]
8,12.5,Isovaleryl-[Glu(OMe)]TH[Dip]PC[hLeu]K([AEEA-AEEA-Dap-C18 diacid])[β3hF][dK]C-NH2 (disulfide 6-11 (inferred)) [Seq. No. 515]
9,16.7,XXTHXPCIXXXC ([Isovaleric Acid]-[Glu(OMe)]-T-H-[Dpa]-P-C-I-[Lys(1PEG2_1PEG2_Dap_C18_Diacid)]-[bhPhe(4-Me)]-[(D)Lys]-C-NH2) [Seq. No. 505]
10,14.6,XXTHXPCIXXXC ([Isovaleric Acid]-[Glu(OMe)]-T-H-[Dpa]-P-C-I-[Lys(PEG2_1PEG2_DMG_N_2ae_C18_Diacid)]-[bhPhe]-[(D)Lys]-C-NH2) [Seq. No. 545]
11,1760,XETHXPCIXXXXC ([Isovaleric Acid]-E-T-H-[Dpa]-P-C-I-[Lys(Ac)]-[bhPhe]-[Lys(Ahx_Palm)]-[(D)Arg]-C-NH2) [Seq. No. 476]
12,42.8,Isovaleryl-ETH[Dip]PCI[dK][β3hF]K([Ahx-Palmitoyl])[dR]C-NH2 (disulfide 6-12 (inferred)) [Seq. No. 475]
13,13.2,XETHXPCIXXXC ([Isovaleric Acid]-E-T-H-[Dpa]-P-C-I-[Lys(1PEG2_1PEG2_IsoGlu_C18_Diacid)]-[bhPhe]-[(D)Lys(Carnitine)]-C-NH2) [Seq. No. 543]
14,46.3,XEXHXPCIXXXXC (not fully specified; [Isovaleric Acid]-E-[Dab]-H-[Dpa]-P-C-I-[(D)Lys]-[bhPhe]-[Lys(Ahx_Palm)]-[(D)Lys]-C-NH2) [Seq. No. 548]
15,9.02,XETHXPCIXXXC ([Isovaleric Acid]-E-T-H-[Dpa]-P-C-I-[N-MeLys(Ahx_Palm)]-[bhPhe]-[(D)Lys(Carnitine)]-C-NH2) [Seq. No. 542]
16,9.26,XETHXPCIXXXC ([Isovaleric Acid]-E-T-H-[Dpa]-P-C-I-[Lys(PEG2_1PEG2_DMG_N_2ae_C18_Diacid)]-[bhPhe]-[(D)Lys]-C-NH2) [Seq. No. 544]
17,39.9,Isovaleryl-[Glu(OMe)]TH[Dip]PCI[dK][β3hF]K([Ahx-Palmitoyl])[dR]C-NH2 (disulfide 6-12 (inferred)) [Seq. No. 501]
18,19.2,XXTHXPCIXXXC ([Isovaleric Acid]-[Glu(OMe)]-T-H-[Dpa]-P-C-I-[Lys(1PEG2_1PEG2_Dap_C18_Diacid)]-[Igl]-[(D)Lys]-C-NH2) [Seq. No. 522]
19,48,XETXXPCIXXXXC (not fully specified; [Isovaleric Acid]-E-T-[Lys(Acrylamide)]-[Dpa]-P-C-I-[(D)Lys]-[bhPhe]-[Lys(Ahx_Palm)]-[(D)Lys]-C-NH2) [Seq. No. 552]
20,32.4,XXTHXPCIXXXXC ([Isovaleric Acid]-[Glu(OMe)]-T-H-[Dpa]-P-C-I-[(D)Lys]-[bhPhe]-[Lys(Ahx_DMG_N_2ae_Palm)]-[(D)Lys]-C-NH2) [Seq. No. 528]
21,26,XETHXPCIXXXXC ([Isovaleric Acid]-E-T-H-[Dpa]-P-C-I-[(D)Lys]-[bhPhe]-[N-MeLys(Ahx_Palm)]-[(D)Lys(Carnitine)]-C-NH2) [Seq. No. 541]
22,24.2,XXTHXPCIXXXC ([Isovaleric Acid]-[Glu(OMe)]-T-H-[Dpa]-P-C-I-[Lys(1PEG2_1PEG2_Dap_C18_Diacid)]-[Hph]-[(D)Lys]-C-NH2) [Seq. No. 508]
23,29.6,XXTHXPCIXXXC ([Isovaleric Acid]-[Glu(OMe)]-T-H-[Dpa]-P-C-I-[Lys(1PEG2_1PEG2_Dap_C18_Diacid)]-[Achc]-[(D)Lys]-C-NH2) [Seq. No. 507]
24,50.8,XEXHXPCIXXXXC (not fully specified; [Isovaleric Acid]-E-[Dap]-H-[Dpa]-P-C-I-[(D)Lys]-[bhPhe]-[Lys(Ahx_Palm)]-[(D)Lys]-C-NH2) [Seq. No. 549]
25,124,XXTWXPCIXXXC ([sovaleric Acid]-[Glu(OMe)]-T-W-[Dpa]-P-C-I-[Lys(1PEG2_1PEG2_Ahx_C18_Diacid)]-[bhPhe]-[(D)Lys]-C-NH2) [Seq. No. 498]
26,10.6,XXTXXPCIXXXC ([Isovaleric Acid]-[Glu(OMe)]-T-[4Pal]-[Dpa]-P-C-I-[Lys(1PEG2_1PEG2_Ahx_C18_Diacid)]-[bhPhe]-[(D)Lys]-C-NH2) [Seq. No. 496]
